# Experimental data published in patent publication US20210236649A1 (ICONIC THERAPEUTICS, published 2021).
# B1: Lipidated rabbit tissue factor (receptor, UniProt P24055 33-292, looked up)
# chain: ADTTGRAYNLTWKSTNFKTILEWEPKSIDHVYTVQISTRLENWKSKCFLTAETECDLTDEVVKDVGQTYMARVLSYPARNGNTTGFPEEPPFRNSPEFTPYLDTNLGQPTIQSFEQVGTKLNVTVQDARTLVRRNGTFLSLRAVFGKDLNYTLYYWRASSTGKKTATTNTNEFLIDVDKGENYCFSVQAVIPSRKRKQRSPESLTECTSREQGRAREMFFIIGAVVVVALLIIVLSVTVYKCRKARAGPSGKESSPLNIA
# notes: Amine-coupled as a proteoliposome to flow cell 2 of the Biacore chip; Also used to start thrombin generation in rabbit plasma; also called rTF; rabbit TF
# B2: Human Factor VIIa (human plasma FVIIa) (enzyme, UniProt P08709 61-466, looked up)
# chain: ANAFLEELRPGSLERECKEEQCSFEEAREIFKDAERTKLFWISYSDGDQCASSPCQNGGSCKDQLQSYICFCLPAFEGRNCETHKDDQLICVNENGGCEQYCSDHTGTKRSCRCHEGYSLLADGVSCTPTVEYPCGKIPILEKRNASKPQGRIVGGKVCPKGECPWQVLLLVNGAQLCGGTLINTIWVVSAAHCFDKIKNWRNLIAVLGEHDLSEHDGDEQSRRVAQVIIPSTYVPGTTNHDIALLRLHQPVVLTDHVVPLCLPERTFSERTLAFVRFSLVSGWGQLLDRGATALELMVLNVPRLMTQDCLQQSRKVGDSPNITEYMFCAGYSDGSKDSCKGDSGGPHATHYRGTWYLTGIVSWGQGCATVGHFGVYTRVSQYIEWLQKLMRSEPRPGVLLRAPFP
# notes: also called hFVIIa; Human FVIIa
# Experiments:
# [1] = molecular target: B2; experiment: SPR (Biacore 3000), lipidated rabbit TF amine-coupled, analyte 0-500 nM, 37 C
# Method: (§1) The GE procedure for proteoliposome immobilization (amine coupling) protocol was used to coat PS/PC/rTF on flow cell 2, and PS/PC/hTF on flow cell 3. Flow cells were equilibrated with running buffer (15 mM Hepes, 150 mM NaCl, 5 mM CaCl2, 25 mM Arginine, 0.01% Tween 80, pH7.4) at a flow rate of 5 μL/min. Kinetic analyses were performed at 37° C. by flowing consecutively increasing concentrations of each analyte […] in the running buffer (15 mM. HEPES, 150 mM NaCl, 5 mM CaCl2, 25 mM Arginine, 0.01% Tween 80, pH 7.4) over the sensor chip for 5 min followed by a 10 min dissociation period at a flow rate of 30 μL/min in parallel.
# (§2) Analyte binding to the lipidated TF was determined by subtracting the RU values noted in the reference flow cell 1 from flow cell 2 and 3. Binding of analytes to the TFs was monitored in real time to obtain on (ka) and off (kd) rates. The equilibrium dissociation constant (KD) was calculated from the observed ka and kd.
# (§3) Based on the saturation concentration of the analyte, binding analysis was performed using saturating analyte concentrations of 0-500 nM for rabbit TF and 0-50 nM for human TF. Chi squared (χ²) analysis was carried out between the actual sensorgram and the calculated on- and off-rates to determine the accuracy of the analysis.
# [2] = molecular target: B2; experiment: SPR (Biacore 3000), lipidated rabbit TF on chip
# Method: as §1, §2, §3
# [3] = molecular target: B1; experiment: SPR (Biacore)
# Method: as §1, §2
Ka [1] [M⁻¹],Kd [1] [nM],koff [1] [s⁻¹],kon [1] [M⁻¹ s⁻¹],Kd [2] [nM],fold lower affinity than to lipidated hTF [3] [fold],Binder
2.5e+07,40,0.0014,34000,39.5,–,B1
–,–,–,–,–,~10,B2
